Patent US6861254

Target: IgG agarose beads (Sigma)
Assay: pull-down with IgG agarose beads; recovered HS^act conversion activity

## Protein A tagged mouse r3-OST-1 (from UniProt O35310 27-311)
  HS^act conversion activity extracted: 7000 units
  recovery of initial HS^act conversion activity: 10%
